# Experiment: soluble on expression in E. coli; label from the status in PepcDB or PDB records
row,Sequence,soluble on expression in E. coli
1,MGSSHHHHHHSSGLVPRGSHMASMTGGQQMGRGSMTTHLQAKATLHNGVEMPWFGLGVFQVEEGSELVNAVKTAIVHGYRSIDTAAIYGNEAGVGEGIREGIEEAGISREDLFITSKVWNADLGYEETLAAFETSLSKLGLDYLDLYLIHWPVEGKYKEAWRALETLYKEGRIKAIGVSNFQIHHLEDLMTAAEIKPMINQVEFHPRLTQKELIRYCQNQGIQMEAWSPLMQGQLLDHPVLADIAQTYNKSVAQIILRWDLQHGIITIPKSTKEHRIKENASVFDFELTQDDMNRIDALNENLRVGPDPDNFDF,soluble
2,MGSSHHHHHHSSGLVPRGSHMASMYTVGDYLLDRLHELGIEEIFGVPGDYNLQFLDQIISREDMKWIGNANELNASYMADGYARTKKAAAFLTTFGVGELSAINGLAGSYAENLPVVEIVGSPTSKVQNDGKFVHHTLADGDFKHFMKMHEPVTAARTLLTAENATYEIDRVLSQLLKERKPVYINLPVDVAAAKAEKPALSLEKESSTTNTTEQVILSKIEESLKNAQKPVVIAGHEVISFGLEKTVTQFVSETKLPITTLNFGKSAVDESLPSFLGIYNGKLSEISLKNFVESADFILMLGVKLTDSSTGAFTHHLDENKMISLNIDEGIIFNKVVEDFDFRAVVSSLSELKGIEYEGQYIDKQYEEFIPSSAPLSQDRLWQAVESLTQSNETIVAEQGTSFFGASTIFLKSNSRFIGQPLWGSIGYTFPAALGSQIADKESRHLLFIGDGSLQLTVQELGLSIREKLNPICFIINNDGYTVEREIHGPTQSYNDIPMWNYSKLPETFGATEDRVVSKIVRTENEFVSVMKEAQADVNRMYWIELVLEKEDAPKLLKKMGKLFAEQNK,soluble
3,MGSSHHHHHHSSGLVPRGSHMGHGSRLPYGEEVINGIADIYRQEADHPVAVGFMNMSRPSIPEAINELAAMGVEKIIVTPVFLAHGVHTKHDIPHILGLDNGAEGHHHHEHEHEHEEFEFDGEIVYTEPLGADPRIAEIIRDRVKSAI,soluble
4,MGSSHHHHHHSSGLVPRGSHMIVREGSAEILVPEVYHGPGKRGTGFYNADQKINRDITIEFIKKMGIRNVLDGFGGTGIRGIRISKETDSAVTISEVSPDSYRLIRDNVERNGSQASVINDSFECVLQHGAYEYVDVDPYGSPVPYLDAALMGVKRNGFLGVTATDQSALTGSVPHKTRIRYDALIKNDTFRHEMGIRLLIGYMAKRAASLGRFIDPLISIWHGHYYRVFVRVRKGFEGAGRMMQNLGYVNKHNLLSGIYQDMDEGPVWKGNLQDNAVAEAVLASAGHKAFNPEENRLLFCDLTDIARARHTSLPDIESVIDALSSSGHAASRTMFSPTGIKTDASCDLVESLMMDTLHRRSPA,soluble
5,MGSSHHHHHHSSGLVPRGSHMKGDKRRDIRDILLHDETLFRNMNAFDPDYVPENYRYRESQMEALAVCIRPALRNGRPVNAVILGSCATGKTTAIKKIFEMVESTSEGVVCCYINCQLHTTRFGIFSQIYSKIFGHQPPETGVPFSRIYQTIMQHLASEKRALVVALDDINHLFYSKNANKVLYDILRAHEVFEGVRTGVFAVLSDIEFRYALDKNVDSIFIPQEIVFPPYTREEVFNILRDRVRVGFYPGVISDELLERITDHTMDTGDLRYGIDLLRVCGNLAEADASPVIGEEHLERALKSTGPVNLIHTVRTLNENEREFLRILADAGEDMTAGALYELFRESTGSSYSSFNRIIEKLEFLRLIDTRLTGKGVRGNSRILIPRFSREDLRRCPGF,soluble
6,MGSSHHHHHHSSGLVPRGSHMKWDYDLRCGEYTLNLNEKTLIMGILNVTPDSFSDGGSYNEVDAAVRHAKEMRDEGAHIIDIGGESTRPGFAKVSVEEEIKRVVPMIQAVSKEVKLPISIDTYKAEVAKQAIEAGAHIINDIWGAKAEPKIAEVAAHYDVPIILMHNRDNMNYRNLMADMIADLYDSIKIAKDAGVRDENIILDPGIGFAKTPEQNLEAMRNLEQLNVLGYPVLLGTSRKSFIGHVLDLPVEERLEGTGATVCLGIEKGCEFVRVHDVKEMSRMAKMMDAMIGKGVK,soluble
7,MGSSHHHHHHSSGLVPRGSHMLEADPLLAQLKQQLHSQTPRAEGVVKATEKGFGFLEVDAQKSYFIPPPQMKKVMHGDRIIAVIHSEKERESAEPEELVEPFLTRFVGKVQGKNDRLAIVPDHPLLKDAIPCRAARGLNHEFKEGDWAVAEMRRHPLKGDRSFYAELTQYITFGDDHFVPWWVTLARHNLEKEAPDGVATEMLDEGLVREDLTALDFVTIDSASTEDMNDALFAKALPDDKLQLIVAIADPTAWIAEGSKLDKAAKIRAFTNYLPGFNIPMLPRELSDDLCSLRANEVRPVLACRMTLSADGTIEDNIEFFAATIESKAKLVYDQVSDWLENTGDWQPESEAIAEQVRLLAQICQRRGEWRHNHALVFKDRPDYRFILGEKGEVLDIVAEPRRIANRIVEEAMIAANICAARVLRDKLGFGIYNVHMGFDPANADALAALLKTHGLHVDAEEVLTLDGFCKLRRELDAQPTGFLDSRIRRFQSFAEISTEPGPHFGLGLEAYATWTSPIRKYGDMINHRLLKAVIKGETATRPQDEITVQMAERRRLNRMAERDVGDWLYARFLKDKAGTDTRFAAEIVDISRGGMRVRLVDNGAIAFIPAPFLHAVRDELVCSQENGTVQIKGETVYKVTDVIDVTIAEVRMETRSIIARPVA,soluble
8,MGSSHHHHHHSSGLVPRGSHMSISRFGVNTENEDHLAKELEDLNKWGLNIFNVAGYSHNRPLTCIMYAIFQERDLLKTFRISSDTFITYMMTLEDHYHSDVAYHNSLHAADVAQSTHVLLSTPALDAVFTDLEILAAIFAAAIHDVDHPGVSNQFLINTNSELALMYNDESVLENHHLAVGFKLLQEEHCDIFMNLTKKQRQTLRKMVIDMVLATDMSKHMSLLADLKTMVETKKVTSSGVLLLDNYTDRIQVLRNMVHCADLSNPTKSLELYRQWTDRIMEEFFQQGDKERERGMEISPMCDKHTASVEKSQVGFIDYIVHPLWETWADLVQPDAQDILDTLEDNRNWYQSMIPQSPSPPLDEQNRDCQGLMEKFQFELTLDEEDSEGPEKEGEGHS,soluble
9,MGSSHHHHHHSSGLVPRGSHMSQFSFTKMHGLGNSYIYVNMFEEQIPEEDLALVAEKVSNINTGIGADGMILICPSDVAPVKMRMFNNDGSEGKSCGNGLRCVAKYAYEHKLVEDTVFTIETLAGIVTAEVTVEEGKVTLAKIDMGAPRLTRAEIPMLGEGETPFIRENFLYNNHRYAFTAVSMGNPHAVIFVDDVEQAPLTTLGPVLETHEMFPERVNVEFIEILNEEEMNFRVWERGSGVTQACGTGACAAVVASILNGKMERGKEITVHLAGGDLMIAWTEEGNVLMKGPAEVICRGVYEYKIEA,soluble
10,MGSSHHHHHHSSGLVPRGSHMSRAYDLVVLGAGSGGLEAGWNAAVTHKKKVAVVDVQATHGPPLFAALGGTCVNVGCVPKKLMVTGAQYMDLIRESGGFGWEMDRESLCPNWKTLIAAKNKVVNSINESYKSMFADTEGLSFHMGFGALQDAHTVVVRKSEDPHSDVLETLDTEYILIATGSWPTRLGVPGDEFCITSNEAFYLEDAPKRMLCVGGGYIAVEFAGIFNGYKPCGGYVDLCYRGDLILRGFDTEVRKSLTKQLGANGIRVRTNLNPTKITKNEDGSNHVHFNDGTEEDYDQVMLAIGRVPRSQALQLDKAGVRTGKNGAVQVDAYSKTSVDNIYAIGDVTNRVMLTPVAINEGAAFVETVFGGKPRATDHTKVACAVFSIPPIGTCGMTEEEAAKNYETVAVYASSFTPLMHNISGSKHKEFMIRIITNESNGEVLGVHMLGDSAPEIIQSVGICMKMGAKISDFHSTIGVHPTSAEELCSMRTPAYFYESGKRVEKLSSNL,soluble
11,MGSSHHHHHHSSGLVPRGSHMTPKDDEFYQQWQLKYPKLILREASSVSEELHKEVQEAFLTLHKHGCLFRDLVRIQGKDLLTPVSRILIGNPGCTYKYLNTRLFTVPWPVKGSNIKHTEAEIAAACETFLKLNDYLQIETIQALEELAAKEKANEDAVPLCMSADFPRVGMGSSYNGQDEVDIKSRAAYNVTLLNFMDPQKMPYLKEEPYFGMGKMAVSWHHDENLVDRSAVAVYSYSCEGPEEESEDDSHLEGRDPDIWHVGFKISWDIETPGLAIPLHQGDCYFMLDDLNATHQHCVLAGSQPRFSSTHRVAECSTGTLDYILQRCQLALQNVCDDVDNDDVSLKSFEPAVLKQGEEIHNEVEFEWLRQFWFQGNRYRKCTDWWCQPMAQLEALWKKMEGVTNAVLHEVKREGLPVEQRNEILTAILASLTARQNLRREWHARCQSRIARTLPADQKPECRPYWEKDDASMPLPFDLTDIVSELRGQLLEAKP,soluble

# Source: the DeepSol protein solubility set
